This data set addresses alpha1 antitrypsin (AAT), P01009.

Sequence of alpha1 antitrypsin (AAT), P01009 (P01009 whole entry, looked up): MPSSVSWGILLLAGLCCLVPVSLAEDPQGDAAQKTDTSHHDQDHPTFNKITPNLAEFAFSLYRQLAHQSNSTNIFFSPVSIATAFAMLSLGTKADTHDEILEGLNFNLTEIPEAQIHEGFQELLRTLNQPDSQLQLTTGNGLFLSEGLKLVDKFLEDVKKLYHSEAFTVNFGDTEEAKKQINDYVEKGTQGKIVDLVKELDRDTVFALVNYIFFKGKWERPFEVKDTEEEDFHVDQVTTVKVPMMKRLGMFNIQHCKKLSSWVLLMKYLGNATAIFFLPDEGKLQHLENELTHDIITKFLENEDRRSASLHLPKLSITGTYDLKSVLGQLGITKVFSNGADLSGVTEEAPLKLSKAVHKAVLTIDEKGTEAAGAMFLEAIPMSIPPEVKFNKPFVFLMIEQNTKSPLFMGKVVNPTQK

B1: wildtype Cela2a (protein)
chain: VVGGEEARPNSWPWQVSLQYSSNGKWYHTCGGSLIANSWVLTAAHCISSSRTYRVGLGRHNLYVAESGSLAVSVSKIVVHKDWNSNQISKGNDIALLKLANPVSLTDKIQLACLPPAGTILPNNYPCYVTGWGRLQTNGAVPDVLQQGRLLVVDYATCSSSAWWGSSVKTSMICAGGDGVISSCNGDSGGPLNCQASDGRWQVHGIVSFGSRLGCNYYHKPSVFTRVSNYIDWINSVIANN
As to B1, the “cleavage of alpha1-antitrypsin” value was “Cela2a cleaves alphal-antitrypsin”.

These data come from patent US20180369344.
